Data on two molecules can be found in PMC9706920, “Aryloxypropanolamine targets amyloid aggregates and reverses Alzheimer-like phenotypes in Alzheimer mouse models” (Alzheimer's Research & Therapy, 2022).

The target of the assay is T1, Flamma 552-conjugated Aβ(1–42) (Flamma 552 dye conjugated (position not given)).
T1 construct: numbers count on: the Aβ peptide; also called Flamma 552-labeled Aβ(1–42); monomeric Aβ(1–42) labeled with fluorescent dye Flamma 552
Briefly: peptide or protein array; Aβ hexapeptides and full-length Aβ(1–42), each with a C-terminal cysteine, immobilised on maleimide-activated microplates (50 μg/mL, binding buffer 0.1 M sodium phosphate, 0.15 M NaCl, 10 mM EDTA, pH 7.2); Flamma 552-Aβ(1–42) 10 μM in deionized water (10% DMSO), 37°C, 2 h; fluorescence 555/580 nm as baseline before YIAD002. Conditions: both partners purified.

B1: Aβ(32–37) fragment IGLMVG with a cysteine residue at the C-terminal (peptide)
chain: IGLMVGC
modifications: C-terminal cysteine coupled to the maleimide-activated microplate
notes: amyloid-β residues 32-37; numbers count on: the Aβ peptide; cysteine residue at the C-terminal, told in words, for immobilisation; source: synthetic peptide (Fmoc solid phase peptide synthesis)
Consider B1, for which the binding result was “binds”.

B2: Aβ(16–21) fragment KLVFFA with a cysteine residue at the C-terminal (peptide)
chain: KLVFFAC
modifications: C-terminal cysteine coupled to the maleimide-activated microplate
notes: amyloid-β residues 16-21; numbers count on: the Aβ peptide; cysteine residue at the C-terminal, told in words, for immobilisation; source: synthetic peptide (Fmoc solid phase peptide synthesis)
B2: the binding result was “binds”.
